Laboratory results as given in patent publication US20220363757A1 (SYMPHOGEN A S, published 2022).
Changes are numbered by the printed parent chain. Each block holds one binder with its values, some of them ahead of it.

Experiments:
Experiment in all cases: SPR, Fab over captured mutant LAG-3-Fc;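 note: fc fusion variants captured on anti-human IgG Fc sensor, Fab injected with association then dissociation phases, KD obtained from Langmuir one-to-one fit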
[1] = target: T1, human LAG-3 domain 1-2 Fc fusion, point mutation #56 G112A (human, UniProt P18627 23-266)
T1 construct: not shown: human IgG1 Fc, AA P101-K330
T1 sequence: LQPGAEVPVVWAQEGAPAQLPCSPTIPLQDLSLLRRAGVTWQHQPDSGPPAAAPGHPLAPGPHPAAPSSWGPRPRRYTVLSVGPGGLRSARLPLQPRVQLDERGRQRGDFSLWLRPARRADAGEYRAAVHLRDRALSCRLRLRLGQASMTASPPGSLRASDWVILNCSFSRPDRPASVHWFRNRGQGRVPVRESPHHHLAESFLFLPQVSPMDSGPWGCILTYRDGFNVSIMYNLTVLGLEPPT

[2] = target: T2, human LAG-3 domain 1-2 Fc fusion, point mutation #1 A40S (human, UniProt P18627 23-266)
T2 construct: not shown: human IgG1 Fc, AA P101-K330
T2 sequence: T1 sequence with A18S, A90G

[3] = target: T3, human LAG-3 domain 1-2 Fc fusion, point mutation #55 S111A (human, UniProt P18627 23-266)
T3 construct: not shown: human IgG1 Fc, AA P101-K330
T3 sequence: T1 sequence with S89A, A90G

[4] = target: T4, human LAG-3 domain 1-2 Fc fusion, point mutation #29 P82A (human, UniProt P18627 23-266)
T4 construct: not shown: human IgG1 Fc, AA P101-K330
T4 sequence: T1 sequence with P60A, A90G

[5] = target: T5, human LAG-3 domain 1-2 Fc fusion, point mutation #69 R129A (human, UniProt P18627 23-266)
T5 construct: not shown: human IgG1 Fc, AA P101-K330
T5 sequence: T1 sequence with A90G, R107A

[6] = target: T6, human LAG-3 domain 1-2 Fc fusion, point mutation #65 R125A (human, UniProt P18627 23-266)
T6 construct: not shown: human IgG1 Fc, AA P101-K330
T6 sequence: T1 sequence with A90G, R103A

[7] = target: T7, human LAG-3 domain 1-2 Fc fusion, point mutation #5 P46A (human, UniProt P18627 23-266)
T7 construct: not shown: human IgG1 Fc, AA P101-K330
T7 sequence: T1 sequence with P24A, A90G

[8] = target: T8, human LAG-3 domain 1-2 Fc fusion, point mutation #13 R58A (human, UniProt P18627 23-266)
T8 construct: not shown: human IgG1 Fc, AA P101-K330
T8 sequence: T1 sequence with R36A, A90G

[9] = target: T9, human LAG-3 domain 1-2 Fc fusion, point mutation #3 P43A (human, UniProt P18627 23-266)
T9 construct: not shown: human IgG1 Fc, AA P101-K330
T9 sequence: T1 sequence with P21A, A90G

KD mutant/KD wild type [1]: 3.1 fold
KD mutant/KD wild type [2]: 0.6 fold
KD mutant/KD wild type [3]: 53.4 fold
KD mutant/KD wild type [4]: 0.9 fold
KD mutant/KD wild type [5]: 0.7 fold
KD mutant/KD wild type [6]: 1.1 fold
KD mutant/KD wild type [7]: 0.7 fold
KD mutant/KD wild type [8]: 1.7 fold
KD mutant/KD wild type [9]: 0.6 fold
B1: Fab fragment of antibody 15011 (Fab, V domains shown, not shown: a dimerising Fc or GST)
VH: EVQLLESGGGLVQPGGSLRLSCAASGFDFRSYAMMWVRQAPGKGLEWVGGINGEVGGSNTYYAPAVKGRATISRDNSKNTLYLQMNSLRAEDTAVYYCVKGAGACGICNDDIDAWGQGTLVTVSS
VL: SYELTQDPAVSVALGQTVRITCSGAGSYAGSYYYGWHQQKPGQAPVTVIYDNDKRPSNIPDRFSGSSSGNTASLTITGAQAEDEADYYCGSTNDNDDGGLFGSGTKVTVLG
notes: monomeric Fab made by GingisKHAN digestion of the IgG1

KD mutant/KD wild type [1]: 0.5 fold
binding result [2]: no binding (tested: 300 nM)
KD mutant/KD wild type [3]: 0.7 fold
KD mutant/KD wild type [4]: 0.8 fold
binding result [5]: no binding (tested: 300 nM)
KD mutant/KD wild type [6]: 1.1 fold
binding result [7]: no binding (tested: 300 nM)
KD mutant/KD wild type [8]: 0.8 fold
binding result [9]: no binding (tested: 300 nM)
B2: Fab fragment of antibody 15572 (Fab, V domains shown, not shown: a dimerising Fc or GST)
VH: QLQLQESGPGLVKPSETLSLTCTVSGDSISSSSYYWGWIRQPPGKGLEWIGSIFYSGNTYYNPSLKSRVTISVDTSKNQFSLKLSSVTAADTAVYYCAREDDFLTDYYGAFDIWGQGTMVTVSS
VL: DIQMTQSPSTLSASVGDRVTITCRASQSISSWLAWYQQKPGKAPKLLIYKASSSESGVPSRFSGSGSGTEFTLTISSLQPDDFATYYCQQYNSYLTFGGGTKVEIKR
notes: as for B1

KD mutant/KD wild type [1]: 1 fold
KD mutant/KD wild type [2]: 4.4 fold
KD mutant/KD wild type [3]: 1 fold
KD mutant/KD wild type [4]: 1 fold
KD mutant/KD wild type [5]: 3 fold
KD mutant/KD wild type [6]: 0.9 fold
KD mutant/KD wild type [7]: 4 fold
KD mutant/KD wild type [8]: 0.8 fold
KD mutant/KD wild type [9]: 3.8 fold
B3: Fab fragment of antibody 15532 (Fab, V domains shown, not shown: a dimerising Fc or GST)
VH: QVQLQQWGAGLLRPSETLSLTCAVYGESFSGYYWNWIRQPPGKGLEWIGEINHSGSTNYNPSLKSRVTISVDTSKTQFSLKLSSVTAADTAVYYCARGWDLLDWNDYWNEYWGQGTLVTVSS
VL: EIVLTQSPATLSLSPGERATLSCRASQSVSSYLAWYQQKPGQAPRLLIYDASNRATGIPARFSGSGSGTDFTLTISSLEPEDFAVYYCQQRSNWPLTFGGGTKVEIKR
notes: as for B1

KD mutant/KD wild type [1]: 0.5 fold
binding result [2]: no binding (tested: 300 nM)
KD mutant/KD wild type [3]: 0.8 fold
KD mutant/KD wild type [4]: 1 fold
binding result [5]: no binding (tested: 300 nM)
KD mutant/KD wild type [6]: 1.1 fold
binding result [7]: no binding (tested: 300 nM)
KD mutant/KD wild type [8]: 1.2 fold
binding result [9]: no binding (tested: 300 nM)
B4: Fab fragment of antibody 15431 (Fab, V domains shown, not shown: a dimerising Fc or GST)
VH: QVQLQQSGPGLVKPSQTLSLTCAISGDSVSSNSAAWNWIRQSPSRGLEWLGRTYYRSKWYNDYAVSVKSRITINPDTSKNQFSLQLNSVTPEDTAVYYCARDDDWNDFDYWGQGTLVTVSS
VL: B3 VL
notes: as for B1
